# B1: CPEB3 Ribozyme (parent)
# chain: GGGGGCCACAGCAGAAGCGUUCACGUCGCGGCCCCUGUCAGAUUCUGGUGAAUCUGCGAAUUCUGCUGU
# Variants of: B1
# Test: self-cleavage, relative activity (ratio to wild type); higher = more cleavage; co-transcriptional
row,Variant,self-cleavage
1,G37U U55C,0.214
2,G37U U55G,0.173
3,U38G U49C,0.231
4,U38G U49A,0.178
5,U38G U49G,0.264
6,U38C U64G,0.785
7,U38C U64C,0.662
8,U38A G65U,0.633
9,U38A G65C,0.578
10,U38G U55A,0.196
11,U38G U55G,0.283
12,U38G U55C,0.172
13,G37U G48A,0.388
14,G37U G48U,0.322
15,G37U A42U,0.246
16,G37U A42C,0.256
17,G37U A42G,0.234
18,U38G G65U,0.28
19,U38G G65A,0.257
20,U38G C54A,0.304
21,G37U G47C,0.352
22,G37U G47U,0.365
23,C39A G50C,0.602
24,C39A G50A,0.912

row,Variant,self-cleavage
1,C39A G50U,0.847
2,U38C U44C,0.856
3,U38C U44A,0.891
4,C39A G65U,0.397
5,C39A G65C,0.361
6,C39A G65A,0.478
7,G37U G68A,0.438
8,G37U G68C,0.42
9,U38A C66A,0.721
10,U38A C66U,0.917
11,U38A C66G,0.764
12,U38C U61C,0.57
13,G37U G65U,0.265
14,G37U G65A,0.234
15,U38G U69A,0.352
16,U38G U69G,0.42
17,U38G U69C,0.412
18,U38G A60G,0.249
19,U38G A60U,0.331
20,G37U U61C,0.21
21,G37U U61G,0.152
22,G37U A59U,0.197
23,U38A U46G,0.943
24,U38A G58A,0.848

row,Variant,self-cleavage
1,U38A G58U,0.936
2,U38A G47A,0.916
3,U38A G47U,1
4,U38A G47C,0.937
5,U38G G56A,0.722
6,U38G G56C,0.237
7,U38G G56U,0.672
8,G37U U38G,0.254
9,G37U U38A,0.321
10,G37U U38C,0.239
11,U38C C39A,0.299
12,U38C C39U,0.702
13,U38C C39G,0.448
14,U38G U67C,0.302
15,U38G U67G,0.273
16,U38G U67A,0.295
17,U38A A42U,0.817
18,U38G C63A,0.155
19,U38G G41C,0.226
20,G37C U61A,0.201
21,G37C U61C,0.223
22,G37C U61G,0.282
23,U38G C45U,0.28
24,U38G C45A,0.286

row,Variant,self-cleavage
1,C39A U46C,0.808
2,C39A U46G,0.957
3,G37C U64G,0.205
4,C39A G68U,0.976
5,C39A G68C,0.932
6,G37C U62G,0.157
7,G37C U62A,0.212
8,U38G G47U,0.219
9,U38G G47A,0.272
10,U38G A59G,0.132
11,U38G A59C,0.232
12,C39A A52U,0.673
13,C39A A52G,0.833
14,C39A A52C,0.67
15,U38A U64C,0.776
16,G37U U67C,0.317
17,G37U U67A,0.293
18,G37U U67G,0.304
19,U38C C66A,0.687
20,U38C C66G,0.717
21,U38G A51C,0.293
22,G37U C45G,0.286
23,G37U C45U,0.316
24,U38C A42G,0.938

row,Variant,self-cleavage
1,U38C A42U,0.827
2,U38C A42C,0.885
3,G37U C57U,0.264
4,G37U C57A,0.174
5,C39G C45U,0.938
6,C39G C45A,0.787
7,C39G C45G,0.828
8,C39A C54U,0.765
9,C39A C54G,0.427
10,C39A C54A,0.583
11,G37U G58U,0.362
12,G37U G58C,0.279
13,U38A U44G,0.875
14,U38A U44A,0.854
15,U38A A52G,0.89
16,U38A A52U,0.856
17,U38C G56U,0.658
18,U38C G56A,0.879
19,U38C G56C,0.401
20,C39A G47U,0.919
21,C39A G47A,0.949
22,U38C C57G,0.369
23,G37U,0.319
24,G37U A40C,0.205

row,Variant,self-cleavage
1,G37U A40G,0.366
2,C39G A42C,0.553
3,C39G A42U,0.725
4,C39G A42G,0.739
5,U38C U69A,0.988
6,U38C U69C,1.06
7,U38C G47A,0.933
8,U38C G47U,0.925
9,C39A U62A,0.549
10,C39G A52G,0.917
11,C39G A52U,0.858
12,C39G A52C,0.89
13,U38A U67G,0.9
14,U38A U67A,0.941
15,G37U C54G,0.168
16,G37U C54A,0.227
17,U38G U46A,0.233
18,U38G U46C,0.294
19,U38A G50C,0.911
20,U38A G50U,0.894
21,G37U U46A,0.416
22,G37U U46C,0.292
23,G37U U46G,0.263
24,U38A U53C,0.811

row,Variant,self-cleavage
1,U38C G65C,0.519
2,U38C G65A,0.746
3,U38C G65U,0.495
4,C39A U53A,0.447
5,C39A U53G,0.351
6,C39A U53C,0.37
7,C39A G56A,0.898
8,C39A G56C,0.904
9,C39A G56U,0.984
10,C39A U55C,0.736
11,C39A U55G,0.808
12,U38C A52C,0.921
13,U38A G48C,0.887
14,U38A G48A,0.938
15,U38A G48U,0.957
16,U38A G56A,0.922
17,U38A C63A,0.663
18,U38A C63G,0.67
19,U38A C63U,0.877
20,U38A A51U,0.84
21,U38A U55C,0.846
22,U38A U55G,0.758
23,U38A U55A,0.779
24,U38C U62G,0.717

row,Variant,self-cleavage
1,U38C U62C,0.633
2,G37C U55G,0.236
3,U38C G50A,0.948
4,U38C G50C,0.942
5,U38A A40U,0.692
6,G37U U53G,0.206
7,G37U U53C,0.252
8,U38C G68U,0.997
9,U38C G68C,0.975
10,U38C G68A,0.992
11,U38G U62C,0.261
12,U38A U69A,0.98
13,U38A C54U,0.911
14,U38G A52C,0.275
15,U38G A52G,0.327
16,G37C U69G,0.375
17,C39A A40U,0.475
18,C39A A40C,0.835
19,C39A A40G,0.841
20,C39A C63U,0.776
21,C39A C63A,0.465
22,C39A C63G,0.407
23,U38C U67A,0.931
24,U38C U67C,0.949

row,Variant,self-cleavage
1,U38G C57A,0.161
2,U38G C57U,0.282
3,U38C C54U,0.948
4,U38C C54G,0.643
5,U38C C45U,0.922
6,U38C C45A,0.885
7,U38G G48U,0.266
8,U38G G48C,0.236
9,C39A A60U,0.24
10,C39A A60C,0.286
11,C39A A60G,0.606
12,C39G A51C,0.718
13,C39G A51G,0.924
14,C39G A51U,0.853
15,G37U A52G,0.282
16,G37U A52U,0.317
17,C39A,0.903
18,C39G,0.967
19,C39A U44A,0.638
20,C39A U44G,0.562
21,C39A U44C,0.432
22,U38G G68A,0.259
23,U38A G41C,0.675
24,C39A C57G,0.327

row,Variant,self-cleavage
1,C39A C57U,0.346
2,U38A U43C,0.9
3,U38A U43G,0.8
4,U38C U49C,0.999
5,U38C U49G,0.916
6,U38A U49A,0.846
7,U38A U49C,0.899
8,U38A U49G,0.962
9,U38C G41A,0.736
10,U38C G41C,0.773
11,C39A U69G,0.964
12,C39A U64C,0.544
13,U38G U43A,0.247
14,U38G U43C,0.161
15,U38G U43G,0.213
16,G37U U44G,0.231
17,G37U U44A,0.213
18,U38A G68U,0.939
19,U38A G68C,0.927
20,C39A U67G,0.932
21,C39A U67C,0.918
22,C39A U67A,0.846
23,U38A A59U,0.462
24,U38A A59C,0.497

row,Variant,self-cleavage
1,U38A A59G,0.939
2,G37U C39U,0.186
3,U38C U46A,0.943
4,U38C U46C,0.966
5,C39A G48A,0.968
6,C39A U43C,0.517
7,C39A U43A,0.386
8,C39A C45U,0.708
9,C39A C45A,0.64
10,G37U U43C,0.236
11,G37U U43A,0.209
12,C39A G58U,0.948
13,C39A G58A,0.625
14,U38C G48A,0.963
15,G37U U49A,0.258
16,G37U U49G,0.327
17,G37U U49C,0.335
18,C39A A42C,0.476
19,C39A A42G,0.35
20,C39A C66U,0.828
21,C39A C66A,0.435
22,U38C A51G,0.88
23,U38C A51C,0.87
24,G37C U67C,0.282

row,Variant,self-cleavage
1,U38A C39U,0.888
2,C39A A59C,0.386
3,G37U G56U,0.224
4,G37U G56A,0.28
5,G37U G56C,0.206
6,U38C A40C,0.77
7,U38C A40G,0.842
8,U38C A40U,0.889
9,C39A A51C,0.654
10,C39A A51G,0.802
11,U38C C63U,0.876
12,C39A U49A,0.902
13,C39G A60G,0.794
14,C39G A60U,0.354
15,C39G A60C,0.265
16,U38A C45G,0.902
17,U38G G58A,0.257
18,U38G G58C,0.236
19,U38G U44G,0.346
20,U38G U44C,0.273
21,U38C A60G,0.78
22,U38C A60C,0.293
23,U38A U61C,0.507
24,U38A U61A,0.782

row,Variant,self-cleavage
1,U38A U61G,0.637
2,U38C G58A,0.895
3,U38C G58U,1.01
4,U38C G58C,0.929
5,C39G A59U,0.587
6,C39G A59C,0.488
7,U38C A59U,0.316
8,C39A U61G,0.402
9,C39A U61C,0.328
10,G37U G50U,0.379
11,U38C U43C,0.858
12,U38C U43A,0.8
13,G37U U62A,0.227
14,G37U U62G,0.332
15,U38G G50U,0.271
16,G37U G41A,0.244
17,G37U G41C,0.139
18,G37U C66G,0.201
19,G37U C66A,0.267
20,U38G U64G,0.25
21,U38G U64C,0.235
22,U38G U64A,0.163
23,G37U C63U,0.271
24,G37U C63A,0.239

row,Variant,self-cleavage
1,G37U C63G,0.312
2,C39G A40C,0.606
3,C39G A40U,0.644
4,U38A A60C,0.418
5,U38A A60G,0.563
6,C39A G41U,0.277
7,G37U U64C,0.283
8,G37U U64A,0.269
9,G37U U69C,0.533
10,U38C U55C,0.556
11,U38C U55A,0.733
12,U38G A42U,0.178
13,U38G A42G,0.189
14,U38G A42C,0.264
15,U38A U62A,0.648
16,U38A U62C,0.594
17,U38G C66A,0.285
18,U38G C66U,0.194
19,U38G C66G,0.229
20,U38A C57U,0.35
21,U38A C57A,0.368
22,U38G C39A,0.8
